Legend:
[1] = in vitro fusion of GFP-LC3 and LAMP2B-mCherry vesicles; conditions: glycan gained; control: non-O-GlcNAcylated His-GRASP55
[2] = LC3-LAMP2 co-IP with added recombinant GRASP55; conditions: glycan gained; control: non-O-GlcNAcylated His-GRASP55 (coexpressed with GST)

Row | Substance | other: autophagosome-lysosome fusion activity [1] | other: bridging of LC3-LAMP2 interaction [2]
1 | GRASP55: O-GlcNAcylated His-GRASP55 | decreases | 
2 | GRASP55: O-GlcNAcylated His-GRASP55 (coexpressed with GST-OGT) |  | decreases
